# Results taken from PMC3616908.
# B1: N-terminal Rad9 CAD region (yeast two-hybrid fusion) [S. cerevisiae] / Chk1 (yeast two-hybrid fusion) [S. cerevisiae] (parent)
# chain 1: MSGQLVQWKSSPDRVTQSAIKEALHSPLADGDMNEMNVPVDPLENKVNSTNIIEGSPKANPNPVKFMNTSEIFQKSLGLLDESPRHDDELNIEVGDNDRPNANILHNERTPDLDRIANFFKSNRTPGKENLLTKYQSSDLEDTPLMLRKKMTFQTPTDPLEQKTFKKLKSDTGFCYYGEQNDGEENASLEVTEADATFVQMAERSADNYDCALEGIVTPKRYKDELSKSGG
# chain 2: MSLSQVSPLPHIKDVVLGDTVGQGAFACVKNAHLQMDPSIILAVKFIHVPTCKKMGLSDKDITKEVVLQSKCSKHPNVLRLIDCNVSKEYMWIILEMADGGDLFDKIEPDVGVDSDVAQFYFQQLVSAINYLHVECGVAHRDIKPENILLDKNGNLKLADFGLASQFRRKDGTLRVSMDQRGSPPYMAPEVLYSEEGYYADRTDIWSIGILLFVLLTGQTPWELPSLENEDFVFFIENDGNLNWGPWSKIEFTHLNLLRKILQPDPNKRVTLKALKLHPWVLRRASFSGDDGLCNDPELLAKKLFSHLKVSLSNENYLKFTQDTNSNNRYISTQPIGNELAELEHDSMHFQTVSNTQRAFTSYDSNTNYNSGTGMTQEAKWTQFISYDIAALQFHSDENDCNELVKRHLQFNPNKLTKFYTLQPMDVLLPILEKALNLSQIRVKPDLFANFERLCELLGYDNVFPLIINIKTKSNGGYQLCGSISIIKIEEELKSVGFERKTGDPLEWRRLFKKISTICRDIILIPN
# Variants of: B1
# Experiment: yeast two-hybrid (β-galactosidase activity)
# Settings: with Chk1 (yeast two-hybrid fusion) [S. cerevisiae]; parent: 1; read off a plot
row,response [AU],Variant
1,0.22,chain 1 MSGQLVQWKSSPDRVTQSAIKEALHAPLADGDMNEMNVPVDPLENKVNSTNIIEGAPKANPNPVKFMNTSEIFQKSLGLLDEAPRHDDELNIEVGDNDRPNANILHNERAPDLDRIANFFKSNRAPGKENLLTKYQSSDLEDAPLMLRKKMTFQAPTDPLEQKTFKKLKSDTGFCYYGEQNDGEENASLEVTEADATFVQMAERSADNYDCALEGIVAPKRYKDELSKSGG [chain 1 S26A S56A S83A T110A T125A T143A T155A T218A]
2,0.18,chain 1 MSGQLVQWKSAPDRVTQSAIKEALHAPLADGDMNEMNVPVDPLENKVNSTNIIEGAPKANPNPVKFMNTSEIFQKSLGLLDESPRHDDELNIEVGDNDRPNANILHNERAPDLDRIANFFKSNRAPGKENLLTKYQSSDLEDAPLMLRKKMTFQAPTDPLEQKTFKKLKSDTGFCYYGEQNDGEENASLEVTEADATFVQMAERSADNYDCALEGIVAPKRYKDELSKSGG [chain 1 S11A S26A S56A T110A T125A T143A T155A T218A]
3,0.14,chain 1 MSGQLVQWKSAPDRVTQSAIKEALHSPLADGDMNEMNVPVDPLENKVNSTNIIEGAPKANPNPVKFMNTSEIFQKSLGLLDEAPRHDDELNIEVGDNDRPNANILHNERAPDLDRIANFFKSNRAPGKENLLTKYQSSDLEDAPLMLRKKMTFQAPTDPLEQKTFKKLKSDTGFCYYGEQNDGEENASLEVTEADATFVQMAERSADNYDCALEGIVAPKRYKDELSKSGG [chain 1 S11A S56A S83A T110A T125A T143A T155A T218A]
4,0.18,chain 1 MSGQLVQWKSAPDRVTQSAIKEALHAPLADGDMNEMNVPVDPLENKVNSTNIIEGSPKANPNPVKFMNTSEIFQKSLGLLDEAPRHDDELNIEVGDNDRPNANILHNERAPDLDRIANFFKSNRAPGKENLLTKYQSSDLEDAPLMLRKKMTFQAPTDPLEQKTFKKLKSDTGFCYYGEQNDGEENASLEVTEADATFVQMAERSADNYDCALEGIVAPKRYKDELSKSGG [chain 1 S11A S26A S83A T110A T125A T143A T155A T218A]

# The remaining lines, values behind:
row,Variant,response [AU]
1,chain 1 MSGQLVQWKSAPDRVTQSAIKEALHAPLADGDMNEMNVPVDPLENKVNSTNIIEGAPKANPNPVKFMNTSEIFQKSLGLLDEAPRHDDELNIEVGDNDRPNANILHNERAPDLDRIANFFKSNRAPGKENLLTKYQSSDLEDAPLMLRKKMTFQAPTDPLEQKTFKKLKSDTGFCYYGEQNDGEENASLEVTEADATFVQMAERSADNYDCALEGIVTPKRYKDELSKSGG [chain 1 S11A S26A S56A S83A T110A T125A T143A T155A],0.15
2,chain 1 MSGQLVQWKSAPDRVTQSAIKEALHAPLADGDMNEMNVPVDPLENKVNSTNIIEGAPKANPNPVKFMNTSEIFQKSLGLLDEAPRHDDELNIEVGDNDRPNANILHNERTPDLDRIANFFKSNRAPGKENLLTKYQSSDLEDAPLMLRKKMTFQAPTDPLEQKTFKKLKSDTGFCYYGEQNDGEENASLEVTEADATFVQMAERSADNYDCALEGIVAPKRYKDELSKSGG [chain 1 S11A S26A S56A S83A T125A T143A T155A T218A],0.2
3,chain 1 MSGQLVQWKSAPDRVTQSAIKEALHAPLADGDMNEMNVPVDPLENKVNSTNIIEGAPKANPNPVKFMNTSEIFQKSLGLLDEAPRHDDELNIEVGDNDRPNANILHNERAPDLDRIANFFKSNRAPGKENLLTKYQSSDLEDTPLMLRKKMTFQAPTDPLEQKTFKKLKSDTGFCYYGEQNDGEENASLEVTEADATFVQMAERSADNYDCALEGIVAPKRYKDELSKSGG [chain 1 S11A S26A S56A S83A T110A T125A T155A T218A],0.8
4,chain 1 MSGQLVQWKSAPDRVTQSAIKEALHAPLADGDMNEMNVPVDPLENKVNSTNIIEGAPKANPNPVKFMNTSEIFQKSLGLLDEAPRHDDELNIEVGDNDRPNANILHNERAPDLDRIANFFKSNRAPGKENLLTKYQSSDLEDAPLMLRKKMTFQTPTDPLEQKTFKKLKSDTGFCYYGEQNDGEENASLEVTEADATFVQMAERSADNYDCALEGIVAPKRYKDELSKSGG [chain 1 S11A S26A S56A S83A T110A T125A T143A T218A],0.28
5,chain 1 MSGQLVQWKSAPDRVTQSAIKEALHAPLADGDMNEMNVPVDPLENKVNSTNIIEGAPKANPNPVKFMNTSEIFQKSLGLLDEAPRHDDELNIEVGDNDRPNANILHNERAPDLDRIANFFKSNRTPGKENLLTKYQSSDLEDAPLMLRKKMTFQAPTDPLEQKTFKKLKSDTGFCYYGEQNDGEENASLEVTEADATFVQMAERSADNYDCALEGIVAPKRYKDELSKSGG [chain 1 S11A S26A S56A S83A T110A T143A T155A T218A],0.59
6,chain 1 MSGQLVQWKSAPDRVTQSAIKEALHAPLADGDMNEMNVPVDPLENKVNSTNIIEGAPKANPNPVKFMNTSEIFQKSLGLLDEAPRHDDELNIEVGDNDRPNANILHNERAPDLDRIANFFKSNRAPGKENLLTKYQSSDLEDAPLMLRKKMTFQAPTDPLEQKTFKKLKSDTGFCYYGEQNDGEENASLEVTEADATFVQMAERSADNYDCALEGIVAPKRYKDELSKSGG [chain 1 S11A S26A S56A S83A T110A T125A T143A T155A T218A],0.07
